± gives the standard deviation.

For 53 sequences, protein stability index results are on record in the supplement of paper PMC10567573.

The nature of the data set: protein stability index of a GFP-peptide fusion (GPS, HEK-293T) (PSI 1-6); higher = more stable.
Where [1] appears, read: treatment: DMSO, c terminus: a fixed tail appended.
Setting [2] is: treatment: MLN4924 1 uM, 8 h, c terminus: a fixed tail appended.
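Note: 24-mer peptide tiles fused after GFP, lentivirally expressed, FACS-sorted into six equal bins by GFP/DsRed ratio, decoded by Illumina sequencing, PSI is the read-weighted mean bin number.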

Take VFIISTLAIDFIDEGRLLLEFDLL [SOAT2]: the protein stability index is 3.23 ± 0.31 under setting [1] and 3.03 ± 0.36 under setting [2].

On to VFPETAFIAVTSYQNHKITQLKIE [TBX5], for which the protein stability index runs as follows: under setting [1], 2.22 ± 0.35; under setting [2], 2.21 ± 0.32.

As for VGGTIRTCQKFLIQYNRRQLLILL [POP5], the protein stability index is 2.96 ± 0.47 under setting [1] and 2.64 ± 0.67 under setting [2].

Take VGLIRNLALCPANHAPLREQGAIP [CTNNB1]: the protein stability index is 3.21 ± 0.24 under setting [1] and 3.32 ± 0.32 under setting [2].

Turning to VGVMLPHNTTEAPGPHSAKQDSYE [ZC2HC1C], the protein stability index is, setting by setting: under setting [1], 5.03 ± 0.27; under setting [2], 5.215 ± 0.033.

For VIESFTELSRIVLMRHGMEKIWRP [RAB40C], the protein stability index is, setting by setting: under setting [1], 3.11 ± 1; under setting [2], 2.6 ± 0.59.

For VKGMQRIVNQWSEKFSDEGDSDSA [DLC1], the protein stability index reads like this: under setting [1], 4.68 ± 0.21; under setting [2], 5.09 ± 0.29.

In turn, VKKNSAKSMGLKKKAFVWARNIGF [ACSBG2] gave a protein stability index under setting [1] of 2.03 ± 0.12 and a protein stability index under setting [2] of 2.24 ± 0.22.

Take VKVLAGQEYAAKIINTKKLSARDH [CAMK2A]: the protein stability index by setting is: under setting [1], 3.15 ± 0.34; under setting [2], 3.33 ± 0.11.

As for VKWMVVFAIGVCTGLVGLFVDFFV [CLCN6], the protein stability index is 2.16 ± 0.31 under setting [1] and 2.42 ± 0.46 under setting [2].

In the case of VLERGDSAPATAKENAAAPSPVRA [PALM], the protein stability index came out at 5.3 ± 0.23 under setting [1] and 5.24 ± 0.078 under setting [2].

As to VLGADGVCMTFMKQIAGGDVTAKN [INTS3], the protein stability index is, setting by setting: under setting [1], 3.51 ± 0.26; under setting [2], 3.6 ± 0.42.

On to VLSHIMFDGPEAWGVCEPQREEVE [ZER1], for which the protein stability index reads like this: under setting [1], 3.63 ± 0.17; under setting [2], 3.49 ± 0.28.

In turn, VLSREQSRRSYDDQLRSGSPPKSP [DNAJC4] showed a protein stability index under setting [1] of 5.29 ± 0.26 and a protein stability index under setting [2] of 5.45 ± 0.12.

For VLTKKFQVTMRGLLSCLSKSNNRL [FBXO39], the protein stability index by setting is: under setting [1], 3.16 ± 0.51; under setting [2], 3.24 ± 1.2.

With VLTLPFDVVKTQRQVALGAMEAVR [SLC25A39], the protein stability index by setting is: under setting [1], 2.51 ± 0.36; under setting [2], 2.71 ± 0.26.

Turning to VNIMRTYTYEKLLWTTSRVLKVLS [CTNNB1], the protein stability index amounted to 2.18 ± 0.14 under setting [1] and 2.41 ± 0.67 under setting [2].

In the case of VNSYYSSPAQQVPKNPALEAFLAQ [TOR1AIP2], the protein stability index reads like this: under setting [1], 3.45 ± 0.36; under setting [2], 3.66 ± 0.25.

Take VPPRMGSRAGGPTTPLSPTRLSRL [LMNB1]: the protein stability index reads like this: under setting [1], 3.92 ± 0.57; under setting [2], 3.85 ± 0.56.

Take VQAPRWGNPRALSFVLSSLQLGEG [OAS1]: the protein stability index stood at 2.31 ± 0.2 under setting [1] and 2.24 ± 0.22 under setting [2].

As for VQPCSAVHLLLKKVLFALCALNAL [FAM189A2], the protein stability index runs as follows: under setting [1], 2.26 ± 0.37; under setting [2], 2.35 ± 0.6.

Consider VQSLCAKHGIEYQSKPLLSAFADI [FADS1], for which the protein stability index by setting is: under setting [1], 2.31 ± 0.3; under setting [2], 2.32 ± 0.26.

For VRAAQLCSQHWGGMASFRFPETTF [TBX6], the protein stability index was determined as 2.48 ± 0.59 under setting [1] and 2.1 ± 0.34 under setting [2].

In turn, VRKVPPGYSIKVFDFERSGLQHAP [SMAD6] had a protein stability index under setting [1] of 2.31 ± 0.33 and a protein stability index under setting [2] of 2.63 ± 0.035.

Regarding VSSNNRLVVTGSGEHASVYQITY [TLE6], the protein stability index worked out at 2.7 ± 0.26 (treatment: DMSO, c terminus: native) and 2.68 ± 0.23 (treatment: MLN4924 1 uM, 8 h, c terminus: native).

Regarding VSWFGSPTTSFLSISKLSPFSEFF [PWWP2B], the protein stability index under setting [1] amounted to 2.32 ± 0.62 and the protein stability index under setting [2] stood at 2.35 ± 0.41.

For the sequence VTQPCGDCGTIQENWVCLSCYQVY [HDAC6], the protein stability index stood at 2.89 ± 0.57 under setting [1] and 2.96 ± 0.7 under setting [2].

With VTTYLHKDYNNLWIIKKHNTNSDP [POMT2], the protein stability index runs as follows: under setting [1], 2.31 ± 0.48; under setting [2], 2.5 ± 0.23.

Consider VVGGAMFFIGFTALVIMWQKHYVY [COX4I1], for which the protein stability index turned out to be 3.11 ± 0.29 under setting [1] and 3.24 ± 0.49 under setting [2].

In turn, VVLCEGVKWLSFHSGYDFGYLIKI [CNOT7] came in with a protein stability index under setting [1] of 2.87 ± 0.36 and a protein stability index under setting [2] of 3.09 ± 1.2.

VVLLFETALLSSGFSLEDPQTHSN [HSP90AB1]: under setting [2], the protein stability index was 2.83 ± 0.84.

For the sequence VVTTEHILVSVAAGVSLSTLEELL [PYCR3], the protein stability index was found to be 3.04 ± 0.72 under setting [1] and 2.78 ± 0.66 under setting [2].

Turning to VYDNEKKLQLQLNETKSQAFVSNS [PLD5], the protein stability index came out at 4.48 ± 0.47 under setting [1] and 4.33 ± 0.19 under setting [2].

As for VYEDETKVVHAVDGTAENGIHPLS [PALM], the protein stability index was determined as 4.88 ± 0.24 under setting [1] and 5.11 ± 0.11 under setting [2].

For VYRFVCDLQNLLGFTPEELHAILG [ETS2], the protein stability index is 2.21 ± 0.41 under setting [1] and 2.19 ± 0.11 under setting [2].

As for VYTETVHVTVENVQELLPAACLLQ [KLHL12], the protein stability index came out at 2.12 ± 0.52 under setting [1] and 1.91 ± 0.26 under setting [2].

WAEAECQRQQLPVTFGNKQKVLGK [BTBD1]: the protein stability index is, setting by setting: under setting [1], 4.42 ± 0.45; under setting [2], 4.31 ± 0.42.

In turn, WDSFSAWLHCVCVVGFDLELGQAV [DENND6A] displayed a protein stability index under setting [1] of 3.04 ± 0.34 and a protein stability index under setting [2] of 3.27 ± 0.68.

In the case of WEIAKAEVEKRGINGSEGDGAEIA [DYNC2LI1], the protein stability index runs as follows: under setting [1], 5.26 ± 0.22; under setting [2], 5.18 ± 0.27.

Sequence WEKKPFSEDVNWGYEKRNLARVPK [CHGB] yielded a protein stability index under setting [1] of 3.38 ± 0.3 and a protein stability index under setting [2] of 3.87 ± 0.17.

Take WGDCSRTCGGGVQFSSRDCTRPVP [ADAMTS4]: the protein stability index by setting is: under setting [1], 2.9 ± 0.95; under setting [2], 2.94 ± 0.26.

As to WIDIKQFVWYTPPTFMIAVFLPIV [STEAP1], the protein stability index reads like this: under setting [1], 2.67 ± 0.36; under setting [2], 3.39 ± 0.61.

For WLLNNLMTHQNVELFKELSINVMK [GMCL1], the protein stability index reads like this: under setting [1], 2.28 ± 0.54; under setting [2], 2.08 ± 0.3.

For the sequence WNFEITNQSFNIVDIKPANMEELT [PPP2R2B], the protein stability index reads like this: under setting [1], 3.4 ± 0.55; under setting [2], 3.13 ± 0.65.

As to WPFSMDCTGTEAHISSCKLGPQVS [LOXL2], the protein stability index reads like this: under setting [1], 3.02 ± 0.25; under setting [2], 3.08 ± 0.34.

Regarding WQAKREEEEEEEEEAEAGEEAVPE [CHGA], the protein stability index is 5.6 ± 0.47 under setting [1] and 5.7 ± 0.22 under setting [2].

Consider WQMIEQIQFIKLFGMAKIDNLLQE [HNF4A], for which the protein stability index worked out at 2.9 ± 0.7 under setting [1] and 2.33 ± 0.33 under setting [2].

For the sequence YAHQPRTADEIPMEPGDIIGVAGN [FUT8], the protein stability index reads like this: under setting [1], 4.2 ± 0.24; under setting [2], 4.36 ± 0.17.

On to YANLALSGLIEIQSYPLCIYLINQ [SLC22A15], for which the protein stability index is, setting by setting: under setting [1], 3.9 ± 0.46; under setting [2], 3.34 ± 0.19.

Regarding YDKNIIHKTAGKRYVYRFVCDLQS [ETS1], the protein stability index runs as follows: under setting [1], 2.11 ± 0.17; under setting [2], 2.14 ± 0.17.

Regarding YHEAPMTRKHYQVTGYGINGTGDS [POMT2], the protein stability index worked out at 2.97 ± 0.36 under setting [1] and 3.42 ± 0.31 under setting [2].

YIFRVANHQKDLFRRTDGRCLIWG [DHCR7] showed a protein stability index under setting [1] of 2.77 ± 0.23 and a protein stability index under setting [2] of 2.35 ± 0.41.

Turning to YILLVGYPPFWDEDQHKLYQQIKA [CAMK2B], the protein stability index amounted to 2.49 ± 0.57 under setting [1] and 2.82 ± 0.56 under setting [2].
